Data on four compounds can be found in patent publication US12576154B2, “Conjugates of PSMA-binding moieties with cytotoxic agents” (PHILOCHEM AG, priority 2022, dated 2026).

One data set concerns HT1080.hPSMA tumor. Description: MMAE release from conjugates in HT1080.hPSMA tumor model (comparison and timepoint study). In kind it is in vivo, mice. Conditions: 250 nmol/kg; for MMAE release compared with Conjugate 1: 24 h after intravenous injection, HT1080.hPSMA tumor model. Here is the method: HT1080.hPSMA tumor cells were grown to 90% confluence and detached with Trypsin-EDTA 0.05%. Cells were resuspended in Hank's Balanced Salt Solution (HBSS) at a density of 5×10^7 cells/mL. 100 μL of HT1080.hPSMA cells (5×10^6 cells) were injected subcutaneously in the right flank of female athymic Balb/c AnNRj-Foxn1 mice (6 to 8 weeks of age). Tumors were grown until ˜250 mm^3 volume (average).
Comparison study: 0.1 mL of 50 μM solutions (2% DMSO, PBS, 250 nmol/kg) of the four conjugates (1 to 4) were injected intravenously. The animals were sacrificed in groups of 3 after 24 h, and blood and the following organs were extracted: HT1080.hPSMA tumor, heart, lungs, liver, kidney, spleen, stomach. The blood fraction was centrifuged, and the plasma (supernatant) was extracted. The organs were stored at −80° C. before being used for further analysis.
Timepoint study: 0.1 mL of a 50 μM solution (2% DMSO, PBS, 250 nmol/kg) of conjugate 1 was injected intravenously into the tail vein of the mice. The animals were sacrificed in groups of 3 after 6 h, 24 h, 48 h, and 72 h, and blood and the following organs were extracted: HT1080.hPSMA tumor, heart, lungs, liver, kidney, spleen, stomach. The blood fraction was centrifuged, and the plasma (supernatant) was extracted. The organs were stored at −80° C. before being used for further analysis.
Frozen plasma (50 μL) and mouse tissues (˜50 mg) were thawed, and 500 μL of PBS was added. Samples were kept on ice, and 50 μL solution of internal standard (d8-MMAE, 50 nM) was added. Samples were then homogenized at 4° C. with a tissue lyser for 2 minutes at 30 Hz for 4 cycles. After homogenization, samples were centrifuged (21'000 g, 10 min). Subsequently, 100 μL of supernatants were collected and added to 900 μL of acetonitrile (ACN) to induce protein precipitation. After centrifugation (21'000 g, 10 min), 800 μL of supernatants were collected and dried at room temperature with a vacuum centrifuge. Pellets were then resuspended in 20 μL of an aqueous solution containing 3% ACN and 0.1% of HCOOH, and 5 μL were injected into the UHPLC-MS system. Chromatographic separation was carried out on a Hypersil Gold C18 column (100 mm×2.1 mm, 1.9 μm particle size, 175 Å pore size) column temperature was set at 50° C. and a flow rate of 700 μL/min with a gradient program from 95% A (water+0.1% HCOOH), 5% B (ACN+0.1% HCOOH) to 35% of A in 2.5 minutes, from 35% A to 5% A in 0.4 minutes and 5% A was kept for 1.3 minutes before reconditioning at 95% A. The LC system was coupled to a Q-Exactive mass spectrometer via an Ion Max HESI Source. Ionization was carried out with a spray voltage of 3.5 kV; Sheath gas 40 units; Aux gas 10 units; capillary temperature of 380° C.; Aux gas temperature 450° C.; S-lens RF level 60. The mass spectrometer was operating in targeted Single Ion Monitoring mode (t-SIM) following the molecular ion 718.5113 m/z. The detector was working in positive ionization mode with the following parameters: resolution 70'000 (FWHM at 200 m/z); AGC target of 5×10^4; maximum injection time of 200 ms; isolation window 14 m/z; isolation offset 5 m/z. Peak areas of analytes and internal standards were integrated, and corresponding ratios were calculated. The ratios were then transformed into pmol/g of wet tissue using single-concentration external calibration points and corrected by the total weight of the sample analysed. The percentage of injected dose per gram (% ID/g) was finally calculated by normalizing the value based on the total dose injected into the mouse. Data analysis was performed with Skyline v22.2.0.351.

Another data set has as its system LNCaP tumor (PSMA+). Briefly: MMAE release from conjugates in LNCaP tumor model (biodistribution by LC-MS). In kind it is in vivo, mice. To be noted: 24 h after intravenous injection, LNCaP tumor model, n=3. As to the method:
LNCaP tumor cells were grown to 80% confluence and detached with Trypsin-EDTA 0.05%. Cells were resuspended in PBS at a density of 30×10^6 cells/mL. The cell suspension was further diluted 1:1 with Matrigel. 200 μL of LNCaP cells (3×10^6 cells) were injected subcutaneously in the left flank of female athymic Balb/c AnNRj-Foxn1 mice (6 to 8 weeks of age). Tumors were grown until volumes of 200-300 mm^3 were observed.
0.1 ml of 50 μM solutions (2% DMSO, PBS) of the four Conjugates (1-4) were injected intravenously into 4 of the mice (1 mouse per SMDC). The animals were sacrificed after 24 h and the following organs were extracted: blood, LNCaP tumor (PSMA+), heart, lungs, liver, kidney, spleen, stomach. The blood fraction was centrifuged, and the plasma (supernatant) was extracted. The organs were preserved at −80° C. before being used for further analysis.
Frozen plasma or mouse tissues (˜50 mg) were thawed and treated with 600 μL of an aqueous solution containing 95% acetonitrile (ACN), and 0.1% HCOOH were added to induce protein precipitation. 50 μL of a solution of d8-MMAE, 50 nM) was added as internal standard. Samples were then homogenized with a tissue lyser for 15 minutes at 30 Hz. After homogenization, samples were centrifuged (21'000 g for 10 minutes). The supernatant was collected and dried at room temperature with a rotary evaporator. Pellets were then resuspended in 1 mL of an aqueous solution containing 3% ACN and 0.1% of TFA and subsequently purified on Oasis HLB SPE columns. Eluates were dried under vacuum at room temperature. […] Peak areas of analytes and internal standards were integrated, and corresponding ratios were calculated. The ratios were then transformed into pmol/g of wet tissue using single-concentration external calibration points and corrected by the total weight of the sample analysed. The percentage of injected dose per gram (% ID/g) was finally calculated by normalizing the value based on the total dose injected into the mouse. […]

For data set [1], the system named is HT1080.hPSMA xenografts. Briefly: Comparative therapy experiment in mice bearing HT1080.hPSMA xenografts (tumor volume). Type of data set: in vivo. To be noted: 250 nmol/kg i.v. on days 8, 10, 12 after tumor implantation, n=5. As to the method: HT1080.hPSMA tumor cells were grown to 90% confluence and detached with Trypsin-EDTA 0.05%. Cells were resuspended in Hank's Balanced Salt Solution (HBSS) at a 5×10^7 cells/mL density. 100 μL of HT1080.hPSMA cells (5×10^6 cells) were injected subcutaneously in the right flank of female athymic Balb/c AnNRj-Foxn1 mice (6 to 8 weeks of age). Tumors were grown until volumes of […].
Tumor-bearing mice were randomized into groups of 5 and 0.1 mL of 50 μM solutions (2% DMSO, PBS, 250 nmol/kg) of the four conjugates (1 to 4), or saline solution (0.9% NaCl) was injected intravenously three times with 1-day break in between (days 8, 10, and 12 after tumor implantation).

In data set [2] the test system is HT1080.hPSMA xenografts. Briefly: Payload study and combination therapy with L19-IL2 in HT1080.hPSMA tumor model (tumor volume). In kind it is in vivo, mice. To be noted: conjugates 250 nmol/kg i.v. days 7 and 11; L19-IL2 2.5 mg/kg i.v. days 8, 10, 12; n=3/4. As to the method:
HT1080.hPSMA tumor cells were grown to 90% confluence and detached with Trypsin-EDTA 0.05%. Cells were resuspended in Hank's Balanced Salt Solution (HBSS) at a 5×10^7 cells/mL density. 100 μL of HT1080.hPSMA cells (5×10^6 cells) were injected subcutaneously in the right flank of female athymic Balb/c AnNRj-Foxn1 mice (6 to 8 weeks of age). Tumors were grown until an average volumes of ˜100 mm^3 was reached.
Tumor-bearing mice were randomized into groups of 3 or 4 animals. A 50 μM solution (2% DMSO, 250 nmol/kg; 100 μL) of Conjugate 1, 5, or 6, L19-IL2 (SEQ ID NO: 10, 0.5 mg/mL, 2.5 mg/kg; 100 μL), PBS (100 μL), or L19-IL2 buffer (NaH2PO4 6.7 mM, NaCl 20 mM, KCl 1.8 mM, Mannitol 133 mM, Tween80 0.1% v/v, Glycerol 1% w/v; 100 μL) was injected intravenously (i.e., systemic administration through tail-vein) with the following schedule:
Groups of Conjugates 1, 5, or 6: two separate injections with a 3-day break in between (day 7 and day 11 after tumor implantation).
L19-IL2 group: three separate injections with a 1-day break in between (day 8, day 10, and day 12 after tumor implantation).
Combination therapy groups: two separate injections of Conjugate 1, 5, or 6 with a 3-day break in between (day 7 and day 11 after tumor implantation) and three separate injections of L19-IL2 with a 1-day break in between (day 8, day 10, and day 12 after tumor implantation). […]

In the case of `CC[C@H](C)[C@@H]([C@@H](CC(=O)N1CCC[C@H]1[C@H](OC)[C@@H](C)C(=O)N[C@H](C)[C@@H](O)c1ccccc1)OC)N(C)C(=O)[C@@H](NC(=O)[C@H](C(C)C)N(C)C(=O)OCc1ccc(NC(=O)[C@H](CCCNC(N)=O)NC(=O)[C@@H](NC(=O)CCCCCN2C(=O)CC(SC[C@H](N)C(=O)NCCCCCC(=O)NC[C@H]3CC[C@H](C(=O)N[C@@H](Cc4ccc5ccccc5c4)C(=O)NCCCC[C@H](NC(=O)N[C@@H](CCC(=O)O)C(=O)O)C(=O)O)CC3)C2=O)C(C)C)cc1)C(C)C` (stereo partly drawn) [Conjugate 2], the “MMAE release compared with Conjugate 1” value in the data set with HT1080.hPSMA tumor was “significantly lower or no release of MMAE”. For the same compound, the “MMAE release in tumor” value in the data set on HT1080.hPSMA tumor (24 hours after intravenous injection, HT1080.hPSMA tumor, n=3) is 1.7 % ID/g. The “MMAE release, experiment repeated with three mice each” value with LNCaP tumor (PSMA+) is on record as “confirmed”. Besides, the “Therapeutic efficacy (tumor volume change)” value with HT1080.hPSMA xenografts [1] is on record as “tumor growth retardation but did not lead to shrinkage of the tumor mass”.

In the case of `CC[C@H](C)[C@@H]([C@@H](CC(=O)N1CCC[C@H]1[C@H](OC)[C@@H](C)C(=O)N[C@H](C)[C@@H](O)c1ccccc1)OC)N(C)C(=O)[C@@H](NC(=O)[C@H](C(C)C)N(C)C(=O)OCCSSC[C@H](N)C(=O)NCCCCCC(=O)NC[C@H]1CC[C@H](C(=O)N[C@@H](Cc2ccc3ccccc3c2)C(=O)NCCCC[C@H](NC(=O)N[C@@H](CCC(=O)O)C(=O)O)C(=O)O)CC1)C(C)C` [Conjugate 3], in the data set on HT1080.hPSMA tumor, the “MMAE release compared with Conjugate 1” value is “significantly lower or no release of MMAE”. Further, in the data set on HT1080.hPSMA xenografts [1], the “Therapeutic efficacy (tumor volume change)” value is “didn't display any therapeutic efficacy”.

In the case of `CC[C@H](C)[C@@H]([C@@H](CC(=O)N1CCC[C@H]1[C@H](OC)[C@@H](C)C(=O)N[C@H](C)[C@@H](O)c1ccccc1)OC)N(C)C(=O)[C@@H](NC(=O)[C@H](C(C)C)N(C)C(=O)CCCCCN1C(=O)CC(SC[C@H](N)C(=O)NCCCCCC(=O)NC[C@H]2CC[C@H](C(=O)N[C@@H](Cc3ccc4ccccc4c3)C(=O)NCCCC[C@H](NC(=O)N[C@@H](CCC(=O)O)C(=O)O)C(=O)O)CC2)C1=O)C(C)C` (stereo partly drawn) [Conjugate 4], in the data set with HT1080.hPSMA tumor, the “MMAE release compared with Conjugate 1” value is “significantly lower or no release of MMAE”. For the same compound, in the data set on HT1080.hPSMA xenografts [1], the “Therapeutic efficacy (tumor volume change)” value is reported as “didn't display any therapeutic efficacy”.

Turning to “L19-IL2: Immunocytokine: L19-derived scFv (binds ED-B domain of fibronectin) linked to IL2, SEQ ID NO: 10 [Conjugate L19-IL2]”, the “In vivo anti-tumor activity, monotherapy (tumor volume)” value in the data set on HT1080.hPSMA xenografts [2] is given as “only a slight tumor growth retardation”.
